In US20190201496A1 (BRIGHAM AND WOMEN S HOSPITAL, published 2019):

Target: neonatal Fc receptor (FcRn) (UniProt P55899 24-297, limits assumed)
Test: comparison of observed KD values; the assay for FcRn is not described here

Chain of neonatal Fc receptor (FcRn) (P55899 24-297 limits assumed, form in doubt, chain 1 of 2): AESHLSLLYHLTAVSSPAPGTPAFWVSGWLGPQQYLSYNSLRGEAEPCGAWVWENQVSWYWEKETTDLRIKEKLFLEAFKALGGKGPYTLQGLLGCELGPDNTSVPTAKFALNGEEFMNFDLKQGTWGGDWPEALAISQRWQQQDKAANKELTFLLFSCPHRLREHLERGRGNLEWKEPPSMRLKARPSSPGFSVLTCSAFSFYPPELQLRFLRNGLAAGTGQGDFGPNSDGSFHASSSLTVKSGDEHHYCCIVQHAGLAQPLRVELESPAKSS
Chain of neonatal Fc receptor (FcRn) (chain, as listed by the source limits assumed, form in doubt, chain 2 of 2): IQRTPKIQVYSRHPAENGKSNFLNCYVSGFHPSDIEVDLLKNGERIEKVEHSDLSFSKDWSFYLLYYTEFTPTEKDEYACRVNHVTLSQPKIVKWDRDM

B1: human alpha-fetoprotein (AFP) (ligand)
chain: RTLHRNEYGIASILDSYQCTAEISLADLATIFFAQFVQEATYKEVSKMVKDALTAIEKPTGDEQSSGCLENQLPAFLEELCHEKEILEKYGHSDCCSQSEEGRHNCFLAHKKPTPASIPLFQVPEPVTSCEAYEEDRETFMNKFIYEIARRHPFLYAPTILLWAARYDKIIPSCCKAENAVECFQTKAATVTKELRESSLLNQHACAVMKNFGTRTFQAITVTKLSQKFTKVNFTEIQKLVLDVAHVHEHCCRGDVLDCLQDGEKIMSYICSQQDTLSNKITECCKLTTLERGQCIIHAENDEKPEGLSPNLNRFLGDRDFNQFSSGEKNIFLASFVHEYSRRHPQLAVSVILRVAKGYQELLEKCFQTENPLECQDKGEEELQKYIQESQALAKRSCGLFQKLGEYYLQNAFLVAYTKKAPQLTSSELMAITRKMAATAATCCQLSEDKLLACGEGAADIIIGHLCIRHEMTPVNPGVGQCCTSSYANRRPCFSSLVVDETYVPPAFSDDKFIFHKDLCQAQGVALQTMKQEFLINLVKQKPQITEEQLEAVIADFSGLLEKCCQGQEQEVCFAEEGQKLISKTRAALGV
notes: also called hAFP; human AFP
  fold higher affinity than AFP to β2M: 100 fold
